We go through one protein from paper PMC12251106, “An Organic Solvent-Tolerant α-L-Rhamnosidase from Dictyoglomus thermophilum and Its Application in Production of Icariside I from Icariin” (Molecules, 2025).

Substrate in this data set: C[C@@H]1O[C@@H](Oc2ccc([N+](=O)[O-])cc2)[C@H](O)[C@H](O)[C@H]1O
The experiment in a line: purified protein. It is filed as biochemical, Dictyoglomus thermophilum. The conditions noted are these: 100 mM NaAc-HAc pH 6.0, 55 °C, 0.1-5 mM pNPR, 0.2 mg/mL enzyme, apparent parameters.

B1: DthRha (Dictyoglomus thermophilum H-6-12) (protein)
chain: MKSSNIYSPFDLKCEFTTNPLGVDKKNPIFSWKLRHLEKNEKQTAYQVIVSSSLETINDNIGDVWDTGKVLSSEQVIKYEGKELEPCKVYFWKVRWWDSKDQESPFSVVNTFETGLMNEENWKAKWITKKEHKYEVYSPDGAPFGLNYTIAYAPMFRKSFSISKKIKRARVYIAGLGLYELYINGERIGDRVLDPGQTDYKKRVLYTVYDVSKNIRDGKNAIGVILGNGRYVKEYGYDFPKLIIQVLVEYEDDSIEWIVSDESWKTTYGPITLNSLYHGEIYDGRKEIKGWNLPDFDDSTWENAILAEPPGGKLYSEIYPPIRITKTIKPIKMWSPEPGTYVYDFGQNYTGWIKIKVRTNESGKEIRIRHAELTYEDGTLNYSTNRTALATDVYITKGEGYEEYEPRFTYHGFRYVEILGYPGVPTLEDIEGKVVHTAVESNGEFICSNELINKIHHNIIWGQLSNLMSIPTDCPQRDERMGWMGDAQLSAEEAIFNFDMIGFYRKYLNDIRDAQKENGSLSDVIPPYWSIYPGDPAWSTAYITIAWYLYQYYGDKYVLEEHYEGFKKYVEFLKKLAPDYIVSFYKYGDWCQPGTVRPKDNSGELTSTFYFYHDVITLSKIAKLLGKEADYKYYSELADKIKSAFNKKFLKEKAYASIPTELSEENVKALLEKYPEDIKDFLRQQFTILSSLGMFTSQTLNTLPLYLNLVPEDKVQDVLKTLLEDIIIRHDYHLDTGIVATRYIFDVLTSYGYDEVAYKIVNQKTYPSFGYMIEEGATTLWERWEKLTSTGMNSHNHIMFGSVDAWFYRVIAGVRVGEPGWNKIIFEPHPVGDLKYAKARLNTIKGEVEINWQKTENIFSMRISVPVNSEGEVHVPKLFERFVVKEGDNIIYEKKGDLEENEKYIVIRVGSGSYNFYMEKI
notes: 921 residues (2763 bp gene); theoretical 106 kDa, about 105 kDa on SDS-PAGE
Usually Km stands for the concentration of substrate that gives half-maximal velocity. As usually defined, the kcat is the maximal rate divided by the concentration of active sites. As a reminder, the kcat/Km is the second-order rate constant that governs catalysis at low substrate concentration. For B1, the Km was found to be 440 µM, the kcat came to 7.99 s⁻¹ and the kcat/Km was 18200 M⁻¹ s⁻¹.
